From IntAct's records for PubMed 15302918

B1: Nuclear receptor subfamily 2 group C member 2 (Homo sapiens), P49116 (parent)
chain: MTSPSPRIQIISTDSAVASPQRIQIVTDQQTGQKIQIVTAVDASGSPKQQFILTSPDGAGTGKVILASPETSSAKQLIFTTSDNLVPGRIQIVTDSASVERLLGKTDVQRPQVVEYCVVCGDKASGRHYGAVSCEGCKGFFKRSVRKNLTYSCRSNQDCIINKHHRNRCQFCRLKKCLEMGMKMESVQSERKPFDVQREKPSNCAASTEKIYIRKDLRSPLIATPTFVADKDGARQTGLLDPGMLVNIQQPLIREDGTVLLATDSKAETSQGALGTLANVVTSLANLSESLNNGDTSEIQPEDQSASEITRAFDTLAKALNTTDSSSSPSLADGIDTSGGGSIHVISRDQSTPIIEVEGPLLSDTHVTFKLTMPSPMPEYLNVHYICESASRLLFLSMHWARSIPAFQALGQDCNTSLVRACWNELFTLGLAQCAQVMSLSTILAAIVNHLQNSIQEDKLSGDRIKQVMEHIWKLQEFCNSMAKLDIDGYEYAYLKAIVLFSPDHPGLTSTSQIEKFQEKAQMELQDYVQKTYSEDTYRLARILVRLPALRLMSSNITEELFFTGLIGNVSIDSIIPYILKMETAEYNGQITGASL
partner: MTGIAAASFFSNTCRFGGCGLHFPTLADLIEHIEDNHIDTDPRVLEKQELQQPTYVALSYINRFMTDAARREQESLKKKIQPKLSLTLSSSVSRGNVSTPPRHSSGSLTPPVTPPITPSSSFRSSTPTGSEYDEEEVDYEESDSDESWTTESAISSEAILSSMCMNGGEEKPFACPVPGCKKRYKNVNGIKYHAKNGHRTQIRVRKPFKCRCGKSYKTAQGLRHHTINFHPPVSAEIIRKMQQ
B2: Juxtaposed with another zinc finger protein 1 (Homo sapiens), Q86VZ6 (parent)
chain: B1 partner
partner: B1 chain

Variants of: B1
Conditions: with jazf1_human JAZF1, Q86VZ6

| effect of a mutation on the interaction | Variant |
| --- | --- |
| decreasing interaction strength | MTSPSPRIQIISTDSAVASPQRIQIVTDQQTGQKIQIVTAVDASGSPKQQFILTSPDGAGTGKVILASPETSSAKQLIFTTSDNLVPGRIQIVTDSASVERLLGKTDVQRPQVVEYCVVCGDKASGRHYGAVSCEGCKGFFKRSVRKNLTYSCRSNQDCIINKHHRNRCQFCRLKKCLEMGMKMESVQSERKPFDVQREKPSNCAASTEKIYIRKDLRSPLIATPTFVADKDGARQTGLLDPGMLVNIQQPLIREDGTVLLATDSKAETSQGALGTLANVVTSLANLSESLNNGDTSEIQPEDQSASEITRAFDTLAKALNTTDSSSSPSLADGIDTSGGGSIHVISRDQSTPIIEVEGPLLSDTHVTFKLTMPSPMPEYLNVHYICESASRLLFLSMHWARSIPAFQALGQDCNTSLVRACWNELFTLGLAQCAQVMSLSTILAAIVNHLQNSIQEDKLSGDRIKQVMEHIWKLQEFCNSMAKLDIDGYEYAYLKAIVLFSPDHPGLTSTSQIEKFQEKAQMELQDYVQKTYSEDTYRLARILVRLPALRLMSSNITEELFFTGLIGNVSIDSINPYILKMETAEYNGQITGASL [I576N] |

Variants of: B2
Conditions: with nr2c2_human NR2C2, P49116

| effect of a mutation on the interaction | Variant |
| --- | --- |
| disrupting interaction strength | MTGIAAASFFSNTCRFGGCGLHFPTLADLIEHIEDNHIDTDPRVLEKQELQQPTYVALSDINRFMTDAARREQESLKKKIQPKLSLTLSSSVSRGNVSTPPRHSSGSLTPPVTPPITPSSSFRSSTPTGSEYDEEEVDYEESDSDESWTTESAISSEAILSSMCMNGGEEKPFACPVPGCKKRYKNVNGIKYHAKNGHRTQIRVRKPFKCRCGKSYKTAQGLRHHTINFHPPVSAEIIRKMQQ [Y60D] |
| with no effect | MTGIAAASFFSNTCRFGGCGLHFPTLADLIEHIEDNHIDTDPRVLEKQELQQPTYVALSYINRFMTDAPRREQESLKKKIQPKLSLTLSSSVSRGNVSTPPRHSSGSLTPPVTPPITPSSSFRSSTPTGSEYDEEEVDYEESDSDESWTTESAISSEAILSSMCMNGGEEKPFACPVPGCKKRYKNVNGIKYHAKNGHRTQIRVRKPFKCRCGKSYKTAQGLRHHTINFHPPVSAEIIRKMQQ [A69P] |
| with no effect | MTGIAAASFFSNTCRFGGCGLHFPTLADLIEHIEDNHIDTDPRVLEPQELQQPTYVALSYINRFMTDAARREQESLKKKIQPKLSLTLSSSVSRGNVSTPPRHSSGSLTPPVTPPITPSSSFRSSTPTGSEYDEEEVDYEESDSDESWTTESAISSEAILSSMCMNGGEEKPFACPVPGCKKRYKNVNGIKYHAKNGHRTQIRVRKPFKCRCGKSYKTAQGLRHHTINFHPPVSAEIIRKMQQ [K47P] |
| decreasing interaction strength | MTGIAAASFFSNTCRFGGCGLHFPTLADLIEHIEDNHIDTDPRVLEKQELQQPTYVALSYINRFMTDAARREQESPKKKIQPKLSLTLSSSVSRGNVSTPPRHSSGSLTPPVTPPITPSSSFRSSTPTGSEYDEEEVDYEESDSDESWTTESAISSEAILSSMCMNGGEEKPFACPVPGCKKRYKNVNGIKYHAKNGHRTQIRVRKPFKCRCGKSYKTAQGLRHHTINFHPPVSAEIIRKMQQ [L76P] |
